These results are taken from article PMC4947441.

Substrate in this data set: CCCC(=O)OP(=O)(O)O
The data set can be described thus: purified protein. In kind it is biochemical, Listeria monocytogenes. Conditions: 500 µM CoA, 100 mM Tris pH 7.5, 25 °C.

B1: Ptb (phosphotransbutyrylase, LmPtb) (Listeria monocytogenes EGD-e) (protein)
chain: MTKSRFFSDVAETSSFVFAVAGADDEVVLETIRLALKQKLGKFLLFGKKEDKTLTANESVTWIQTDTAEAAAQGAILAVKNKEADILVKGFIPTATLMHHVLKKENGLRTDQLLSQIAIFDIPTYHKPLLITDCAMNVAPKTKEKIAITENALAVAHQIGITNPKIALLSAVEEVTAKMPSTLEAQEVVQHFGNQISVSGPLALDVAISKEAALHKGITDSSAGEADILIAPNIETGNALYKSLVYFAGAKVGSAVVGAKVPIVISSRNDSPENKLASFILTVRLVEK
In the case of B1, the Km worked out at 1040 µM.
